Experimental data published in the Immune Epitope Database (IEDB).

Assays:
Experiment in all cases: IEDB peptide-MHC binding, purified MHC/competitive/fluorescence; filed as Kd, often an IC50 or EC50 that approximates it; ≥ and ≤ were set here for values at or beyond the usual limits of such assays
HLA-A*02:19 = molecular target: HLA-A*02:19
HLA-B*46:01 = molecular target: HLA-B*46:01
HLA-B*39:01 = molecular target: HLA-B*39:01
HLA-B*57:01 = molecular target: HLA-B*57:01
HLA-A*29:02 = molecular target: HLA-A*29:02
HLA-B*51:01 = molecular target: HLA-B*51:01
HLA-A*02:16 = molecular target: HLA-A*02:16
HLA-B*18:01 = molecular target: HLA-B*18:01
HLA-A*02:03 = molecular target: HLA-A*02:03
HLA-A*69:01 = molecular target: HLA-A*69:01
HLA-A*02:01 = molecular target: HLA-A*02:01
HLA-A*03:01 = molecular target: HLA-A*03:01
HLA-A*02:11 = molecular target: HLA-A*02:11
HLA-B*15:01 = molecular target: HLA-B*15:01
HLA-A*02:12 = molecular target: HLA-A*02:12
HLA-A*26:01 = molecular target: HLA-A*26:01
HLA-B*27:03 = molecular target: HLA-B*27:03
HLA-A*68:02 = molecular target: HLA-A*68:02
HLA-A*24:03 = molecular target: HLA-A*24:03
HLA-B*15:17 = settings: source organism: Entamoeba histolytica HM-1:IMSS
HLA-A*23:01 = settings: source organism: Entamoeba histolytica HM-1:IMSS
[1] = source organism: Vibrio cholerae 2740-80
[2] = source organism: Mycobacterium tuberculosis variant bovis BCG str. Pasteur 1173P2
[3] = source organism: Entamoeba histolytica HM-1:IMSS

CERYGFPAS
Kd (HLA-A*02:19; [1]): ≥ 20 µM
Kd (HLA-B*46:01; [1]): ≥ 20 µM
Kd (HLA-B*39:01; [1]): ≥ 20 µM
Kd (HLA-B*57:01; [1]): ≥ 20 µM
Kd (HLA-A*29:02; [1]): ≥ 20 µM
Kd (HLA-B*51:01; [1]): ≥ 20 µM
Kd (HLA-A*02:16; [1]): ≥ 20 µM
Kd (HLA-B*18:01; [1]): 0.0433 µM
Kd (HLA-A*02:03; [1]): ≥ 20 µM
Kd (HLA-A*69:01; [1]): ≥ 20 µM
Kd (HLA-A*02:01; [1]): ≥ 20 µM
Kd (HLA-A*03:01; [1]): ≥ 20 µM
Kd (HLA-A*02:11; [1]): ≥ 20 µM
Kd (HLA-B*15:01; [1]): ≥ 20 µM
Kd (HLA-A*02:12; [1]): ≥ 20 µM
Kd (HLA-A*26:01; [1]): ≥ 20 µM
Kd (HLA-B*27:03; [1]): ≥ 20 µM
Kd (HLA-A*68:02; [1]): ≥ 20 µM

DEGFHAATV
Kd (HLA-A*02:19; [2]): ≥ 20 µM
Kd (HLA-A*24:03; [2]): ≥ 20 µM
Kd (HLA-B*46:01; [2]): ≥ 20 µM
Kd (HLA-B*39:01; [2]): ≥ 20 µM
Kd (HLA-B*57:01; [2]): ≥ 20 µM
Kd (HLA-A*29:02; [2]): ≥ 20 µM
Kd (HLA-A*02:16; [2]): ≥ 20 µM
Kd (HLA-B*18:01; [2]): 0.0788 µM
Kd (HLA-A*02:03; [2]): ≥ 20 µM
Kd (HLA-A*02:01; [2]): ≥ 20 µM
Kd (HLA-A*03:01; [2]): ≥ 20 µM
Kd (HLA-A*02:11; [2]): ≥ 20 µM
Kd (HLA-B*15:01; [2]): ≥ 20 µM
Kd (HLA-A*02:12; [2]): ≥ 20 µM
Kd (HLA-A*26:01; [2]): ≥ 20 µM
Kd (HLA-B*27:03; [2]): ≥ 20 µM

KVSVGSYFC
Kd (HLA-A*02:19; [3]): ≥ 20 µM
Kd (HLA-A*24:03; [3]): ≥ 20 µM
Kd (HLA-B*46:01; [3]): ≥ 20 µM
Kd (HLA-B*39:01; [3]): ≥ 20 µM
Kd (HLA-B*57:01; [3]): ≥ 20 µM
Kd (HLA-A*29:02; [3]): ≥ 20 µM
Kd (HLA-B*51:01; [3]): ≥ 20 µM
Kd (HLA-A*02:16; [3]): 9 µM
Kd (HLA-B*18:01; [3]): ≥ 20 µM
Kd (HLA-A*02:03; [3]): ≥ 20 µM
Kd (HLA-A*69:01; [3]): ≥ 20 µM
Kd (HLA-A*02:01; [3]): ≥ 20 µM
Kd (HLA-A*03:01; [3]): ≥ 20 µM
Kd (HLA-A*02:11; [3]): ≥ 20 µM
Kd (HLA-B*15:01; [3]): ≥ 20 µM
Kd (HLA-B*15:17): ≥ 20 µM
Kd (HLA-A*02:12; [3]): ≥ 20 µM
Kd (HLA-A*26:01; [3]): ≥ 20 µM
Kd (HLA-A*23:01): ≥ 20 µM
Kd (HLA-B*27:03; [3]): ≥ 20 µM
Kd (HLA-A*68:02; [3]): ≥ 20 µM
